This is an account of results in the RNAGym collection of RNA variant scans (doi:10.7554/elife.80360).

The labels stand for the following.
B1: Hairpin Ribozyme (parent)
chain: GUCCUCUUUCACGUGCGCGUGAAAGAGAGAAGUGAACCAGAGAAACACACGUUGUGGUAUAUUACCUGGUA

Variants of B1 are the subject of this series. The series can be described thus: self-cleavage, relative activity (ratio to wild type); higher = more cleavage; co-transcriptional.
C10A C48U: the self-cleavage was 0.0572.
For the variant C10A C48G, the self-cleavage was 0.157.
To C10A C48A belongs 0.102.
In the case of A11G A35U it was 0.764.
To A11G A35C belongs 0.996.
C10G A61U: the self-cleavage is 0.2.
C10G A61C: the self-cleavage came to 0.255.
As for A11C U52C, the self-cleavage was determined as 1.06.
In the case of A11C A26C it was 0.41; in that of A11C A26U, 0.482; in that of A11C G29U, 0.113.
To A11C G29C belongs 0.137; to A11C U67C, 0.225.
As for A11U A23C, the self-cleavage is 0.652.
In the case of A11U A23G it was 0.402.
To A11G C18A belongs 0.795.
With A11G C18U, the self-cleavage came out at 0.939.
Turning to C10U G51A, the self-cleavage amounted to 0.881.
In the case of C10U G51U it was 0.888; in that of A11C G13A, 0.661.
To C10A U20G belongs 0.663; to A11G C46U, 0.203.
In the case of C10U U60G it was 0.435.
For A11U A28C, the self-cleavage was determined as 0.53.
To C10G G54C belongs 0.193.
In the case of C10U C65A it was 0.642; in that of C10U C65U, 0.204.
To A11U G15U belongs 0.895.
For the variant C10G C37A, the self-cleavage turned out to be 0.22.
To A11C U60C belongs 1.27.
To A11G G34A belongs 1.18; to C10A U53G, 0.514; to C10A G51A, 0.695.
In the case of C10U A11G it was 0.734; in that of C10G A64C, 0.169.
With C10G G17C, the self-cleavage was 0.533.
In the case of C10G G17U it was 0.539; in that of C10U C12U, 0.652; in that of A11G A23G, 0.83.
To A11C G42C belongs 0.441; to A11C C48G, 0.0688.
To A11C C48A belongs 0.0917; to A11C C48U, 0.266; to C10A A26U, 0.461.
With C10A G27U, the self-cleavage turned out to be 0.233.
To C10A G27A belongs 0.35; to A11C A39G, 0.275.
In the case of A11C A39C it was 0.514.
In the case of C10U A59G it was 0.206.
C10U A59C: the self-cleavage amounted to 0.227.
Turning to A11C A41U, the self-cleavage was 1.29.
To A11C A41C belongs 1.25; to A11C G69U, 0.299; to A11C G69A, 0.381.
In the case of A11C C65G it was 0.331; in that of C10G A30C, 0.168; in that of C10G A30G, 0.143.
In the case of C10G A30U it was 0.0991; in that of C10U A22C, 0.631.
On to A11G A45U, for which the self-cleavage came to 0.159.
To A11C U58G belongs 0.696.
In the case of A11C A36U it was 0.491; in that of A11C A36G, 1.07; in that of A11G G25U, 0.569.
To A11G G25C belongs 0.587; to C10U A61G, 0.201.
C10U A61C: the self-cleavage worked out at 0.311.
Regarding C10G A22U, the self-cleavage came to 0.661.
In the case of A11G A59U it was 0.199; in that of C10U C66U, 0.43.
On to C10U C66G, for which the self-cleavage was 0.19.
In the case of C10A G69A it was 0.317.
In the case of C10A G69C it was 0.241; in that of C10U G40A, 0.308; in that of A11U C18A, 0.826.
In the case of C10U U20A it was 0.774.
On to C10G U62A, for which the self-cleavage came to 0.0993.
In the case of C10G U62C it was 0.261; in that of A11C G21C, 0.732.
As to A11C G21A, the self-cleavage amounted to 0.605.
To A11C A24C belongs 0.709; to A11C A24U, 0.615; to C10U A71G, 0.811.
To C10A A49C belongs 0.223.
Regarding C10A U55A, the self-cleavage came to 0.23.
Regarding A11C U63A, the self-cleavage worked out at 0.201.
In the case of C10U U33A it was 0.169.
On to A11G C12U, for which the self-cleavage was 0.778.
Regarding A11G C12A, the self-cleavage is 0.735.
To C10U C16G belongs 0.564.
To C10U C16A belongs 0.887; to A11G C65A, 0.759; to A11G C65U, 0.227.
In the case of C10A C65U it was 0.274; in that of A11G G68U, 0.143; in that of A11G G68C, 0.221.
With C10G U70G, the self-cleavage came out at 0.611.
For the variant C10G A28U, the self-cleavage was 0.586.
In the case of C10G A28G it was 0.954.
As to A11U A45G, the self-cleavage is 0.
As for A11U A45C, the self-cleavage worked out at 0.241.
To C10G C66U belongs 0.347; to C10G C66G, 0.189.
To C10G G56A belongs 0.156; to C10A C16U, 0.762.
On to C10U A28U, for which the self-cleavage was 0.357.
Take C10U A39U: the self-cleavage amounted to 0.334.
Consider C10U U70G, for which the self-cleavage worked out at 0.698.
In the case of A11C A43U it was 0.163; in that of C10A A59U, 0.234; in that of C10G A44C, 0.126.
In the case of C10G A44G it was 0.108; in that of C10G A44U, 0.133.
In the case of A11G C66A it was 0.29; in that of C10A A43U, 0.133; in that of A11C G68C, 0.136.
In the case of A11C G68A, the self-cleavage was found to be 0.248.
In the case of C10U A31G it was 0.812.
In the case of C10U A31U it was 0.103; in that of C10U U63A, 0.25.
To C10U U63G belongs 0.263; to C10A A64U, 0.121.
For the variant A11U A43C, the self-cleavage is 0.139.
To A11U A43G belongs 0.135; to C10G C16U, 0.735; to C10G C16A, 0.555.
In the case of C10G G69A it was 0.299.
In the case of C10G G69U it was 0.142; in that of A11C U62G, 0.199.
In the case of C10U U67A, the self-cleavage was determined as 0.137.
In the case of C10U U67G it was 0.311; in that of A11G G32A, 0.0907; in that of A11G G32U, 0.104.
In the case of A11G A44G it was 0.0822; in that of A11G A44C, 0.203; in that of A11U A26C, 0.305.
In the case of C10A A61C it was 0.18; in that of C10A A61U, 0.194.
Consider C10U G19C, for which the self-cleavage was found to be 0.702.
Regarding C10U G19A, the self-cleavage was 0.588.
On to C10A G13U, for which the self-cleavage is 0.425.
In the case of C10U G34C it was 1.02; in that of C10U G21A, 0.937; in that of C10U G21C, 0.77.
In the case of C10G G29C it was 0.106.
To C10G G29A belongs 0.0932.
For the variant A11G A26C, the self-cleavage was determined as 0.624.
For the variant A11C G15C, the self-cleavage was 0.752.
Consider A11C G15A, for which the self-cleavage came to 0.819.
To A11U A61C belongs 0.137.
Regarding A11C A45U, the self-cleavage amounted to 0.128.
In the case of A11C A45C it was 0.0923.
In the case of C10U A64C, the self-cleavage was 0.213.
To A11U A71C belongs 1.17; to C10U G25A, 0.429; to C10G A71C, 1.2.
In the case of A11U A47G it was 0.247; in that of A11U A47C, 0.232.
In the case of C10A A71U it was 0.557.
For the variant A11G U62G, the self-cleavage is 0.332.
On to A11G U62C, for which the self-cleavage is 0.146.
Turning to A11C U33C, the self-cleavage is 0.252.
In the case of A11C U33A it was 0.222.
On to A11C U33G, for which the self-cleavage was 0.0703.
To C10U G68A belongs 0.217; to A11G C48G, 0.109; to A11G C48A, 0.0849.
